Paper doi:10.1101/2023.08.16.553618, “Structure of C. elegans TMC-2 complex suggests roles of lipid-mediated subunit contacts in mechanosensory transduction” (bioRxiv, 2023)

Target: the molecule itself
Experiment: cryo-EM structure; single particle cryo-EM of the native TMC-2 complex isolated from worms in GDN with 1 mM CaCl2; cis-dimeric particles; 2 nm carbon grids

B1: C. elegans TMC-2 (transmembrane channel-like protein 2), native, with C-terminal mVenus-3C-3xFLAG (natural protein, UniProt Q11069 1-1203, looked up)
chain: MPKSGAHQPLVRHDTDDGGETGQSVKSLADVSEEEIDSRMSRRSSVIADLLSLFRRSSSVLVRPHTRLGNPNFDDDDDEFDEEDDKEASKDRILKKIQQKKEIIQKLRGQPWYMKRKRRTLKVAQKHLQQQEAKVSKARLYKAEAGRRLTQASRWLDNLKIYLIPWEAKIRKIESHFGSVVSSYFTFHRWVLGVNITITFIMCMFVVIPEWLADSRTQFGDDRYNKTKAIKVMPPAVRARADELSTVWDFGGYFQYSLLFYGFYSKETFFGETIKYRVPVAYFFCNIFILGFSLFIILRKMAANNRRGTLSSGKTQQYLFNWKAFTGWDYTIGNPETAGNVYMANVIKFREAINDDKQKPSDKHPWIRFVARVLTNLFICAMYVFSIWAIMQCGTLKGEHFFAQNATAITISLITLVFPNIFDLLGKIEKLHPRNALRFQLGRVLVLYILNYYTLIYSLMLQLEHLQKEKNASDNPISALGHPGDAIGRTIRETVLPRYPVDNNPHTYYSYAPVTTTPIPATSSWTTVLPDFGPFGVYNPKASVTKDDTVFSSPVVETHMFGPNSDWNETTVNAASPTGATTRASLRMSQGGLCWETIIGQEITKLVTMDLYMTVASIFLIDFLRGLACRYLNLYWPWDLERTFPEYGEFKVAENVLHLVNNQGMIWLGLFFVPLLPMLNNIKLIILMYIRGWAAMTCNVPASQIFRASRSSNFFFALLILFLFLCTLPVGFVIASKTPSKSCGPFGNQSFFYSVITDVLHENLDKTLVNGIKYSLSPGIIIPVLVLLSLVIYFLIAMVTGLSQANQDLSFQLMVERTEEKKKIFELAGGKKKKSKDNTFGKQKPKQLLPPPTKGVSSDDDSQHNRSTAKSVSGRQFVPSLGSVSEVDHSTGEEQSSDSESTTSSLPPKLSLRQRFLVCIGWADPNKYGRHDDIEMEEGGGRLRELSTGSETDSDDEDSEKSNRDMSYRTAIQSFDQNSQSASASSSKSTTTAPSNSEMRIEITENPLHTYITPLRIEKKSSASSSSSSHQPSSSIEKQAARRLLQPISTTHNIRYGVATVENSSQDPTRPPSTDDSLGDPALHEPLWANLNPHSSYTSAMMSPIMNEVMSNDETTDDEKGRLIPDRPPIPHSPRELKRLKREKDQQSESGSKPSTPRPPRFRISMSPPRKPPSEKNDSDSSNRKYEMRVEKSPKKPKKSDND
modifications: N-glycans at N225 and N748 (density features)
notes: TMC-2, C. elegans, Wormbase B0416.1a; tag inserted prior to the stop codon of the endogenous gene; A 3C (PreScission) site lies between mVenus and 3xFLAG; The complex was captured by the 3xFLAG tag and eluted by 3C cleavage, so the sample for SEC, mass spectrometry and cryo-EM has mVenus but no 3xFLAG; Two copies stand in the cis-dimeric complex; Not modelled in 8TKP: M1-A88, A472-T582, …
  stoichiometry N: 2
